Reference: PMC7062184, “A lipoprotein lipase–GPI-anchored high-density lipoprotein–binding protein 1 fusion lowers triglycerides in mice: Implications for managing familial chylomicronemia syndrome” (The Journal of Biological Chemistry, 2019)
Each block holds one binder with its values, some of them ahead of it.

B1: Soluble GPIHBP1(21–151)-FLAG-His6-Avi (domain or fragment, human)
chain: QTQQEEEEEDEDHGPDDYDEEDEDEVEEEETNRLPGGRSRVLLRCYTCKSLPRDERCNLTQNCSHGQTCTTLIAHGNTESGLLTTHSTWCTDSCQPITKTVEGTQVTMTCCQSSLCNVPPWQSSRVQDPTG
modifications: biotin on the C-terminal AviTag (BirA) where immobilised or labelled with streptavidin-D2; nonbiotinylated as free competitor in TR-FRET
notes: human GPIHBP1, soluble fragment of residues 21–151; also called GPIHBP1-Avi; hGPIHBP1-Avi; source: HEK293T, transfected, purified (Ni-NTA); also co-expressed with LPL and LMF1 in HEK293T and purified as the complex (Ni-NTA, SEC); not shown: AviTag, C-terminal, kept
B4: His6-TEV-LPL (N-terminally His6-tagged human lipoprotein lipase) (enzyme)
chain: ADQRRDFIDIESKFALRTPEDTAEDTCHLIPGVAESVATCHFNHSSKTFMVIHGWTVTGMYESWVPKLVAALYKREPDSNVIVVDWLSRAQEHYPVSAGYTKLVGQDVARFINWMEEEFNYPLDNVHLLGYSLGAHAAGIAGSLTNKKVNRITGLDPAGPNFEYAEAPSRLSPDDADFVDVLHTFTRGSPGRSIGIQKPVGHVDIYPNGGTFQPGCNIGEAIRVIAERGLGDVDQLVKCSHERSIHLFIDSLLNEENPSKAYRCSSKEAFEKGLCLSCRKNRCNNLGYEINKVRAKRSSKMYLKTRSQMPYKVFHYQVKIHFSGTESETHTNQAFEISLYGTVAESENIPFTLPEVSTNKTYSFLIYTEVDIGELLMLKLKWKSDSYFSWSDWWSSPGFAIQKIRVKAGETQKKVIFCSREKVSHLQKGKAPAVFVKCHDKSLNKKSG
notes: human lipoprotein lipase; also called His6-LPL; hLPL; not shown: His6, N-terminal, kept
B5: His6-LPL-HA-FLAG (enzyme, human)
chain: ADQRRDFIDIESKFALRTPEDTAEDTCHLIPGVAESVATCHFNHSSKTFMVIHGWTVTGMYESWVPKLVAALYKREPDSNVIVVDWLSRAQEHYPVSAGYTKLVGQDVARFINWMEEEFNYPLDNVHLLGYSLGAHAAGIAGSLTNKKVNRITGLDPAGPNFEYAEAPSRLSPDDADFVDVLHTFTRGSPGRSIGIQKPVGHVDIYPNGGTFQPGCNIGEAIRVIAERGLGDVDQLVKCSHERSIHLFIDSLLNEENPSKAYRCSSKEAFEKGLCLSCRKNRCNNLGYEINKVRAKRSSKMYLKTRSQMPYKVFHYQVKIHFSGTESETHTNQAFEISLYGTVAESENIPFTLPEVSTNKTYSFLIYTEVDIGELLMLKLKWKSDSYFSWSDWWSSPGFAIQKIRVKAGETQKKVIFCSREKVSHLQKGKAPAVFVKCHDKSLNKKSG
notes: human lipoprotein lipase; Used as the complex with biotinylated hGPIHBP1-Avi in the TR-FRET assay; also called His6-hLPL-HA-FLAG; source: HEK293T, co-transfected with GPIHBP1 and LMF1, complex purified (Ni-NTA, SEC); not shown: His6, N-terminal, kept; HA, C-terminal, kept; FLAG, C-terminal, kept

Tests used:
[1] = biological target: T1, His6-LPL-HA-FLAG (human); assay: FRET
T1 chain: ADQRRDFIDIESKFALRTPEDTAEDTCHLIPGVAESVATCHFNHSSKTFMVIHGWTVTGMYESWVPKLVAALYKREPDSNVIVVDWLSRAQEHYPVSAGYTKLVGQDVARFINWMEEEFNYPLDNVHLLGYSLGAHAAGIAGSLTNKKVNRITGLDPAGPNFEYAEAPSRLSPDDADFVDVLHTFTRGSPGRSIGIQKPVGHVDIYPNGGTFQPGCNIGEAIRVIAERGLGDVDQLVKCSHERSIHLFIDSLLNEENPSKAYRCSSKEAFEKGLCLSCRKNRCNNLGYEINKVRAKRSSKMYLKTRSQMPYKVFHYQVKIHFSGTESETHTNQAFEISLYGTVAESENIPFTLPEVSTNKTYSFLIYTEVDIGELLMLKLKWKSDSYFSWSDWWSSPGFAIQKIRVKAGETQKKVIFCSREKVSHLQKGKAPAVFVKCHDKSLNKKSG

[2] = biological target: B5; assay: FRET or BRET; TR-FRET; 10 nM His6-hLPL-HA-FLAG/biotinylated hGPIHBP1-Avi complex challenged with 1–1000 nM nonbiotinylated ANGPTL4, ANGPTL3 or GPIHBP1, 1 h room temperature; 20 mM HEPES pH 7.4, 100 mM NaCl, 10% heat-inactivated FBS, 5 mM CaCl2; anti-HA-Tb and streptavidin-D2; conditions: both partners purified
[3] = biological target: B4; assay: SEC; His6-LPL, GPIHBP1 and LMF1 co-transfected 3:1:1 in HEK293T; complex captured from the medium by Ni-affinity, then Superdex 200 in 10 mM Tris pH 7.5, 300 mM NaCl; eluted at ~75 kDa; conditions: both partners purified
[4] = biological target: T2, LPL (untagged human lipoprotein lipase) (human); assay: cell-based or functional assay
T2 chain: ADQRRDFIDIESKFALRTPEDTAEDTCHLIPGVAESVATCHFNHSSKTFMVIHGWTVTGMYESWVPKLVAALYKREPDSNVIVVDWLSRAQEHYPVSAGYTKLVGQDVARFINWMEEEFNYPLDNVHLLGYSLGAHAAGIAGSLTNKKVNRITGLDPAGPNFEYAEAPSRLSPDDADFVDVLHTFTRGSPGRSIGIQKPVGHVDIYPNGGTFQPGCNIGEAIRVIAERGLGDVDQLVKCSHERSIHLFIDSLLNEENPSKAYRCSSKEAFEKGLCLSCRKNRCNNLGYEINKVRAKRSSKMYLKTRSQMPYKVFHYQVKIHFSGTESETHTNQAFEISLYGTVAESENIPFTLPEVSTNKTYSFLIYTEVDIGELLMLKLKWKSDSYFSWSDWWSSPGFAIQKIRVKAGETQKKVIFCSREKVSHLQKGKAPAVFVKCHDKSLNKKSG

[5] = biological target: B4; assay: cell-based or functional assay
[6] = biological target: T1, His6-LPL-HA-FLAG; assay: FRET; dissociation of LPL(HA)-GPIHBP1(Avi) complex (10 nM)
[7] = biological target: B1; assay: ELISA; 10 nM LPL/GPIHBP1 complex or fusion, biotinylated at the C-terminal AviTag of GPIHBP1, incubated with ANGPTL4 (12-point 2-fold dilution from 100 nM), then applied to a streptavidin-coated MSD plate; LPL and ANGPTL4 detected with specific antibodies; conditions: both partners purified
[8] = biological target: B1; assay: FRET or BRET; TR-FRET; 10 nM His6-hLPL-HA-FLAG/biotinylated hGPIHBP1-Avi complex challenged with 1–1000 nM nonbiotinylated ANGPTL4, ANGPTL3 or GPIHBP1, 1 h room temperature; 20 mM HEPES pH 7.4, 100 mM NaCl, 10% heat-inactivated FBS, 5 mM CaCl2; anti-HA-Tb and streptavidin-D2; conditions: both partners purified
[9] = biological target: T3, LPL(28–475)-(G4S)4-hGPIHBP1(21–151)-FLAG-His6-Avi (human, biotin on the C-terminal AviTag (BirA) in ELISA and SPR); assay: cell-based or functional assay
T3 chain: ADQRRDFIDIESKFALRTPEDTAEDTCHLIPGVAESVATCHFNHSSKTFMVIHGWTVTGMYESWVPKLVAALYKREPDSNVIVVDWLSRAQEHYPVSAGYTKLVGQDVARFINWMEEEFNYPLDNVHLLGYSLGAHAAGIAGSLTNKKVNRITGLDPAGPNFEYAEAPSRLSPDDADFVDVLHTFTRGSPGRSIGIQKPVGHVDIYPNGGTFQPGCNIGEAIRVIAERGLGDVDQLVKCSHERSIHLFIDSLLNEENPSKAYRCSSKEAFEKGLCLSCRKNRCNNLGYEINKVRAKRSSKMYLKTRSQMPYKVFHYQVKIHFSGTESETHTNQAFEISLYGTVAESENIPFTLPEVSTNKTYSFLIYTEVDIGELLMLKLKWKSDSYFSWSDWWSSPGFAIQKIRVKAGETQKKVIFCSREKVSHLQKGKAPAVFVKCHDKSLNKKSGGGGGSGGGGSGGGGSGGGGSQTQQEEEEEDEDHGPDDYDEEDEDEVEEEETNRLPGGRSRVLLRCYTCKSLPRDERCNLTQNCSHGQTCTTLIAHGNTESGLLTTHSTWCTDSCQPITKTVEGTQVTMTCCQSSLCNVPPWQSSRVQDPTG

[10] = biological target: T1, His6-LPL-HA-FLAG; assay: FRET; competition: dissociation of LPL(HA)/GPIHBP1(Avi) complex

Binder: B1
IC50 [1]: 15 nM | binding result [2]: binds

Binder: B4
binding result [7]: binds

Binder: B5
binding result [8]: binds

Next, values leading:

stoichiometry N [3]: 1
B2: Soluble GPIHBP1(21–151), untagged (domain or fragment, human)
chain: QTQQEEEEEDEDHGPDDYDEEDEDEVEEEETNRLPGGRSRVLLRCYTCKSLPRDERCNLTQNCSHGQTCTTLIAHGNTESGLLTTHSTWCTDSCQPITKTVEGTQVTMTCCQSSLCNVPPWQSSRVQDPTG
notes: human GPIHBP1, soluble fragment of residues 21–151 (part of the extracellular domain); also called untagged GPIHBP1

IC50 of ANGPTL3-mediated inactivation of 10 nM LPL alone, hydrolysis of VLDL [4]: 8 nM | IC50 of ANGPTL3-mediated inactivation of 10 nM coexpressed LPL/GPIHBP1 complex, hydrolysis of VLDL [5]: 300 nM | IC50 [6]: 100 nM
B3: ANGPTL3(17–460)-FLAG-His6-Avi (natural protein)
chain: SRIDQDNSSFDSLSPEPKSRFAMLDDVKILANGLLQLGHGLKDFVHKTKGQINDIFQKLNIFDQSFYDLSLQTSEIKEEEKELRRTTYKLQVKNEEVKNMSLELNSKLESLLEEKILLQQKVKYLEEQLTNLIQNQPETPEHPEVTSLKTFVEKQDNSIKDLLQTVEDQYKQLNQQHSQIKEIENQLRRTSIQEPTEISLSSKPRAPRTTPFLQLNEIRNVKHDGIPAECTTIYNRGEHTSGMYAIRPSNSQVFHVYCDVISGSPWTLIQHRIDGSQNFNETWENYKYGFGRLDGEFWLGLEKIYSIVKQSNYVLRIELEDWKDNKHYIEYSFYLGNHETNYTLHLVAITGNVPNAIPENKDLVFSTWDHKAKGHFNCPEGYSGGWWWHDECGENNLNGKYNKPRAKSKPERRRGLSWKSQNGRLYSIKSTKMLIHPTDSESFE

IC50 of ANGPTL4-mediated inactivation of 10 nM fusion protein against that of LPL alone, hydrolysis of VLDL [9]: 36 fold | IC50 of ANGPTL4-mediated inactivation of 10 nM fusion protein against that of the coexpressed LPL/GPIHBP1 complex, hydrolysis of VLDL [9]: 6 fold | IC50 of ANGPTL4-mediated inactivation of 10 nM LPL alone, hydrolysis of VLDL [4]: 3 nM | IC50 of ANGPTL4-mediated inactivation of 10 nM coexpressed LPL/GPIHBP1 complex, hydrolysis of VLDL [5]: 19 nM | IC50 [10]: 18 nM | IC50 [6]: 10 nM
B6: ANGPTL4(26–406)-FLAG-His6-Avi (natural protein)
chain: QPGPVQSKSPRFASWDEMNVLAHGLLQLGQGLREHAERTRSQLSALERRLSACGSACQGTEGSTDLPLAPESRVDPEVLHSLQTQLKAQNSRIQQLFHKVAQQQRHLEKQHLRIQHLQSQFGLLDHKHLDHEVAKPARRKRLPEMAQPVDPAHNVSRLHRLPRDCQELFQVGERQSGLFEIQPQGSPPFLVNCKMTSDGGWTVIQRRHDGSVDFNRPWEAYKAGFGDPHGEFWLGLEKVHSITGDRNSRLAVQLRDWDGNAELLQFSVHLGGEDTAYSLQLTAPVAGQLGATTVPPSGLSVPFSTWDQDHDLRRDKNCAKSLSGGWWFGTCSHSNLNGQYFRSIPQQRQKLKKGIFWKTWRGRYYPLQATTMLIQPMAAEAAS
